{
  "source": "paper PMC4433263",
  "about": "“Identification of Rv3852 as an Agrimophol-Binding Protein in Mycobacterium tuberculosis” (PLoS ONE, 2015)",
  "key": {"[1]": {"molecular_target": "T1, Rv3852 (Mycobacterium tuberculosis H37Rv) (UniProt I6YHB0)", "T1 sequence": "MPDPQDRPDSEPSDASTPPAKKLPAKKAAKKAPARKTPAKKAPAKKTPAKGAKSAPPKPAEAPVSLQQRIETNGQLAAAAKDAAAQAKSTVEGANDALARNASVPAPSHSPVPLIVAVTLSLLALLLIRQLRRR", "assay": "EMSA", "conditions": "binding buffer and pH not stated ([…]"}, "Rv2466c": {"molecular_target": "Rv2466c (UniProt O53193)", "sequence (O53193 whole entry)": "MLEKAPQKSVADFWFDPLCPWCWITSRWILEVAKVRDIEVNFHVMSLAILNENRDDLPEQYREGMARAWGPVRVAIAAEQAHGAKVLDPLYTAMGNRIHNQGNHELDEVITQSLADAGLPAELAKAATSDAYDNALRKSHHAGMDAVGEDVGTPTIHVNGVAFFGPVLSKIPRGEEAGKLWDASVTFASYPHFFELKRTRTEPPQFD", "assay": "EMSA", "conditions": "binding buffer and pH not stated ([…]"}},
  "data": [
    {"sequence": "AATTCCGGCGCCTTCCCGGGCCGGAAGCCGGGCAGCCGCACCTGTTTGGCCAGCTCTTTGTAGGCCCGCTGGAAATCCGGCTCAAGCTCGGCGAATGGCACCTCCACGTTGATACGAACCCGGGTGGGGCTCAACTGCTCGACGGTGCTCTTCACGGGTGTGCTCCTTGGTAGTCGATAACGGCGGTCGGCTGGTCGGGGTGACAGGATTTGAACCTGCGGCCTTCCGCTCCCAAAGCGGATGCGCTACCAAGCTGCGCTACACCCCGCGCTGACCTCGCGATCCTACG / AATTCGTAGGATCGCGAGGTCAGCGCGGGGTGTAGCGCAGCTTGGTAGCGCATCCGCTTTGGGAGCGGAAGGCCGCAGGTTCAAATCCTGTCACCCCGACCAGCCGACCGCCGTTATCGACTACCAAGGAGCACACCCGTGAAGAGCACCGTCGAGCAGTTGAGCCCCACCCGGGTTCGTATCAACGTGGAGGTGCCATTCGCCGAGCTTGAGCCGGATTTCCAGCGGGCCTACAAAGAGCTGGCCAAACAGGTGCGGCTGCCCGGCTTCCGGCCCGGGAAGGCGCCGG [proU2]", "values": [
      {"measurement": "binding", "setting": "[1]", "value": "binds"},
      {"measurement": "binding", "setting": "Rv2466c", "value": "no binding"}
    ]}
  ]
}
